Results from the supplement of paper PMC10567573.
± gives the standard deviation.

Assay: protein stability index of a GFP-peptide fusion (GPS, HEK-293T) (PSI 1-6); higher = more stable
[1] = treatment: DMSO, c terminus: a fixed tail appended
[2] = treatment: MLN4924 1 uM, 8 h, c terminus: a fixed tail appended
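Also: 24-mer peptide tiles fused after GFP, lentivirally expressed, FACS-sorted into six equal bins by GFP/DsRed ratio, decoded by Illumina sequencing, PSI is the read-weighted mean bin number.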

Sequence | protein stability index [1] | protein stability index [2] | protein stability index (treatment: DMSO, c terminus: native) | protein stability index (treatment: MLN4924 1 uM, 8 h, c terminus: native)
PHDFIEHFLSKMPEAEENKQIIRK [CCND1] | 3.96 ± 0.21 | 4.27 ± 0.22 | – | –
RQVPGSDPACYEFLWGPRALVETS [MAGEA3] | 3.11 ± 0.23 | 3.04 ± 0.37 | – | –
HKRRRRKQKVSRIERSSSFSSITD [DVL3] | 4.28 ± 0.096 | 4.55 ± 0.092 | – | –
TGNYRKGNAHLGYSLVTHIPAGAR [ADAMTSL2] | 2.95 ± 0.17 | 2.69 ± 0.3 | – | –
ATWMLEVCEEQKCEEEVFPLAMNY [CCND1] | 3.61 ± 0.16 | 3.77 ± 0.25 | – | –
PNVYPAAPQGGMAALNMSLGMVTP [ADD1] | 3.26 ± 0.28 | 3.25 ± 0.21 | – | –
VVGDNAVGKTRLICARACNATLTQ [RHOBTB2] | 2.63 ± 0.17 | 2.67 ± 0.14 | – | –
EDQYQFSYRAALEYLGSFDHYAT [PTPRD] | – | – | 2.61 ± 0.49 | 2.69 ± 0.34
WNDSCGEDMEASDYELEDETRPAK [WEE1] | 5.41 ± 0.32 | 5.45 ± 0.17 | – | –
NGSMAMGTVPGQAPRLAVAVPAVT [LYSMD4] | 3.77 ± 0.43 | 4 ± 0.23 | – | –
ASEPLPWDLRFRIIHETAVGMNFL [RIPK4] | 2.43 ± 0.15 | 2.33 ± 0.19 | – | –
MGGTTSTRRVTFEADENENITVVK [CHCHD3] | 4.95 ± 0.27 | 5.11 ± 0.21 | – | –
DTSMDGTEPPQNPVTPLGLQNEVP [SERTAD3] | 5.4 ± 0.19 | 5.38 ± 0.34 | – | –
VDDVSVSLRLWDTFGDHHKDRRFA [RHOBTB2] | 3.28 ± 0.23 | 3.19 ± 0.28 | – | –
SPELQEEFGYNAETQKLLCKNGET [ARFIP2] | 5.31 ± 0.29 | 5.46 ± 0.11 | – | –
QELQARLQTVTREKEELLQLSIER [CCDC89] | 4.38 ± 0.35 | 4.32 ± 0.1 | – | –
CVPVFANMSREPFSTRALVLSILH [SOAT2] | 2.22 ± 0.21 | 2 ± 0.22 | – | –
TGEAARPHKGLNLHPLLSGRLGRW [PCDHGC5] | 2.77 ± 0.17 | 2.9 ± 0.23 | – | –
LNHVKSMWYPEIKHFCPRTPVILV [RHOBTB1] | 3.16 ± 0.47 | 3.1 ± 0.82 | – | –
SYRTESAQRQACMYASSAPPSEPV [TBX5] | 3.79 ± 0.16 | 4.07 ± 0.24 | – | –
HHHHGRDFLLRAASFDVCESVDEA [RHOBTB2] | 4.04 ± 0.38 | 4.25 ± 0.27 | – | –
SSISHRFHKDCASRVNNASYCPHC [EHMT1] | 3.48 ± 0.67 | 4.11 ± 0.56 | – | –

Sequence | protein stability index [1] | protein stability index [2] | protein stability index (treatment: DMSO, c terminus: native) | protein stability index (treatment: MLN4924 1 uM, 8 h, c terminus: native)
RILWKKIQENQRNLYEEGRTAFLW [TRIM43] | 2.08 ± 0.36 | 2.31 ± 0.28 | – | –
GRQPALRPHVHKQTEKTTRVRTVL [ISL2] | 3.66 ± 0.1 | 3.88 ± 0.17 | – | –
IKVKPKRVGIFLDYEAGTLSFYNV [TRIM39] | 2.54 ± 0.54 | 2.61 ± 0.48 | – | –
PAFKSMEVANFYYEADCLAAAYGG [CEBPB] | 2.83 ± 0.25 | 2.96 ± 0.13 | – | –
AVSQPFRLSSSLQGSAVTLKTSKM [CDC14A] | 3.77 ± 0.3 | 3.71 ± 0.28 | – | –
LLHLAVNSNTPVDDFHTNDVCSFP [FEM1B] | 2.85 ± 0.25 | 2.74 ± 0.12 | – | –
ASYDKTVRAWDLETGKLLWKVRYD [WDR88] | 2.31 ± 0.4 | 2.14 ± 0.31 | – | –
RTELVEQAFRAIDRADYYLEEFKE [PCMTD2] | 4.1 ± 0.12 | 4.12 ± 0.19 | – | –
FAKAKPEIPWTSLTRKGLVRVVFF [PHTF1] | 3.41 ± 0.51 | 3.29 ± 0.84 | – | –
LEYLYTANVTLSLDTVEEVLSVSK [KLHL14] | 2.41 ± 0.66 | 1.96 ± 0.36 | – | –
LLPNQSHGNQSAGEDQAFGDWLLT [SLC22A15] | 4.14 ± 0.35 | 4.24 ± 0.18 | – | –
TDHILESLYRDIRDIQDENQLLVA [STX11] | 3.22 ± 0.3 | 3.24 ± 0.39 | – | –
KDREFHELQGDFSVPDVPKSMAWC [VPS39] | 3.5 ± 0.33 | 3.31 ± 0.15 | – | –
CMSIVTSMTAGVSEREANDALNAY [INTS3] | 3.41 ± 0.3 | 3.49 ± 0.21 | – | –
LRAEEIETRVTSGSMEALNLKQLR [PPFIA4] | 4.32 ± 0.28 | 4.58 ± 0.57 | – | –
SNFYTVAVTSLSSQIQYMNTVVST [TMEM106C] | 3.13 ± 0.59 | 3.11 ± 0.49 | – | –
LHILARDVHNRIVIRGLNTIPLFV [CTNNB1] | 2.73 ± 0.48 | 2.68 ± 0.56 | – | –
QIKALNNKFASFIDKVRFLEQQNQ [KRT71] | 2.38 ± 0.1 | 2.59 ± 0.4 | – | –
PLFNPMIYSLRNKEFKSALCKIVR [OR10K2] | 2.32 ± 0.071 | 1.9 ± 0.5 | – | –
WEMIRKIGDTSVSYKYTSRYVLKA [LMNB1] | 1.98 ± 0.58 | 2.56 ± 0.49 | – | –
VSTQPAMMVNLRACSAPGGLVPSE [C2CD2L] | 3.43 ± 0.16 | 3.5 ± 0.14 | – | –
VCDESVRKLSSAVRSGIVEYLSLV [PRIM1] | 2.34 ± 0.83 | 2.1 ± 0.3 | – | –
